From the nanobody polyreactivity screen of Harvey et al. (2022) come the findings set out here.

This data set is described as follows: yeast display, Sf9 membrane polyspecificity reagent, FACS + sequencing; frameworks hold sequencing errors. Summed up: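 Polyreactivity labels are assigned by the sorting gate from which each nanobody was recovered. The gates were low and high (top ~1%), set on anti-HA fluorescence for expression and streptavidin fluorescence for reagent binding. Before sorting, galactose-induced (36–48 hours) yeast display cells were stained for 1 hour at 4 °C with 10% biotinylated, detergent-solubilized Sf9 membrane reagent.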
Turning to “QVQLVESGGGLVQAGGSLRLSCAASGSTLPGNVMAWYRQAPGKERELVAAISKRGASTYYADSVKGRFTISRDNAKNTVYLQMNSLKPEDTAVYYCATRTRGSVFRFDYWGQGTQVTVSS”, the “polyreactivity (PSR sort gate)” value is listed as “high polyreactivity”.

For the sequence “QVQLVESGGGLVQAGGSLRLSCAASGSTLPNNAMGWYRQAPGKERELVAAISWRGTRTYYADSVKGRFTISRDNAKNTVYLQMNSLKPEDTAVYYCAAGGVGAYDYWGQGTEVTVSS”, the “polyreactivity (PSR sort gate)” value is recorded as “high polyreactivity”. For “QVQLVESGGGLVQAGGSLRLSCAASGSTLPRYAMGWYRQAPGKEREFVAAMTWRGGSTYYADSVKGRFTISRDNAKNTVYLQMNSLKPEDTAVYYCNTHRNGGSHRRYNYWGQGTQVTVSS”, the “polyreactivity (PSR sort gate)” value is reported as “high polyreactivity”. As for “QVQLVESGGGLVQAGGSLRLSCAASGSTLPVNAMGWYRQAPGKERELVAAINRDGSTNYADSVKRPFTISRDNAKNNVYLQMNCLKPDDTAVYYCGADGFGYPGKRYDYWGHGTQVTVSS”, the “polyreactivity (PSR sort gate)” value is recorded as “low polyreactivity”. For “QVQLVESGGGLVQAGGSLRLSCAASGSTLQINGMGGYRQAPGKERELVAAISIGGDTNYADSVKGRFTISRDNAKNTEMNSLKTEDTAVYYCNTDYFGSLVVVIFDYWGQGTQVTVSS” the value was “low polyreactivity”; for “QVQLVESGGGLVQAGGSLRLSCAASGSTLQINGMGWYRQAPGKERELVAAISIGSDTNYADSVKGRFTISRDNAKNTEMNSLKPEDTAVYYCAAQRRYHQDTTIGPGNYYYWGQGTQVTVSS”, “low polyreactivity”; for “QVQLVESGGGLVQAGGSLRLSCAASGSTLQVNAMGWYRQAPGNERELVATISFSGGSTYYADSVKGRFTISRDNAKYTVYLQMNSLKPEDTAVYYCNADSFVSWYNQFWYQATYDYWGQGTEVTVSS”, “low polyreactivity”.

Turning to “QVQLVESGGGLVQAGGSLRLSCAASGSTLQVYAMGWYREAPGKERELVAAISKSGGRTYYADSVKGRFSISRDNAKNTFYLQMNSLKPEDTAVYYCAADVGTAQSTYGYWGQGTQVTVSS”, the “polyreactivity (PSR sort gate)” value was “high polyreactivity”. On to “QVQLVESGGGLVQAGGSLRLSCAASGSTLRRYAMGWYRQAPGKERELVAAISGTGSRTYYADSVKGRFTISRDNAKNTVYLQMNSLKPEDTAVYYCNASPYRLTENDYWGQGTQVTVSS”, for which the “polyreactivity (PSR sort gate)” value was “high polyreactivity”. Turning to “QVQLVESGGGLVQAGGSLRLSCAASGSTLRRYAMGWYRQAPGKERELVAINSSGGITYYADSVKGRVTISRDNAKNTVYLQMNSLKPEDTAVYYCNARRPAPGYGYDYWGQGTQVTVSS”, the “polyreactivity (PSR sort gate)” value is “low polyreactivity”. For the sequence “QVQLVESGGGLVQAGGSLRLSCAASGSTLRRYAMGWYRQAPGTERELVASNSRGGTSTYYADSVKGRFTISRDNAKNTVYLQMKSLKPEDTAVYYCAAATPYRYNYWGQGTQVTVSS”, the “polyreactivity (PSR sort gate)” value is “high polyreactivity”. For “QVQLVESGGGLVQAGGSLRLSCAASGSTLSDYVMGWYRQAPGKERELVAAITSGGSTSYADSVKGRFTISRDNAKNTVYLQMNSLKPEDTAVYYCNATLLFPLLYGPESGEFDYWGQGTQVTVSS” the value was “low polyreactivity”; for “QVQLVESGGGLVQAGGSLRLSCAASGSTLSGNAMGWYRQAPGKERELVAAIRWSGDITYYADSVKGRFTISRDNAKNTVYLQMNSLKPEDTAVYYCAATLGNRWFHYNYWGQGTQVTVSS”, “low polyreactivity”. In the case of “QVQLVESGGGLVQAGGSLRLSCAASGSTLSKYAMGWYRQAPGKERELVAAISQRGGSTYYADSVKGRFTISRDNAKNTVYLQMNSLKPEDTAVYYCNALQRRYGYWGQGTQVTVSS”, the “polyreactivity (PSR sort gate)” value is “high polyreactivity”. For “QVQLVESGGGLVQAGGSLRLSCAASGSTLSKYGMGWYRQAPGKERDLVAAISYSSGSTYYADSVKGRFTISRDNAKNTVYLEMNSLKPEDTAVDYCAADRFRSLHYWTYDYWGQGTQVTVSS”, the “polyreactivity (PSR sort gate)” value is “high polyreactivity”. For “QVQLVESGGGLVQAGGSLRLSCAASGSTLSVNAMGWYRQAPGKERELVAAIDFDGGDTYYADSVKGRFTISRDNAKNTVYLQMKSLKPEDTAVYFCAADIGGQYDYLADDYWGQGNQVTVSS” the value was “low polyreactivity”; for “QVQLVESGGGLVQAGGSLRLSCAASGSTLSVNAMGWYRQAPGKERELVAAIDFDGGDTYYADSVKGRFTISRDNAKNTVYLQMNSLKPEDTAVYYCAADIGGQYDYLADDYWGQGTQVTVSS”, “low polyreactivity”. The result for “QVQLVESGGGLVQAGGSLRLSCAASGSTLTRNAMGWYRQAPGKERELVAAITTSGGRTYYADSVKGRFTISRDNAKNTVYLQMNSLKPEDTAVYYCAARQRSEYVSGSLFYYWGQGTQVTVSS” reads “high polyreactivity”.

Consider “QVQLVESGGGLVQAGGSLRLSCAASGSTLVFYAMGWYRQAPGKERELVAAIDSDGGTYYADSVKGRFTISRDNAKNTVYLQMNSLKPEDTAVYYCNAAGALIFGEGYYVEYDYDYWGQGTQVTVSS”, for which the “polyreactivity (PSR sort gate)” value was “low polyreactivity”.

With “QVQLVESGGGLVQAGGSLRLSCAASGSTLVTNPMGWYRQAPGKERELVAAITFSGGTTYYADSVKGRFTISRDTAKNTVYLHMNSLKPEDTAVYYCAAEIWLEYVGYDYWGQGTQVTVSS”, the “polyreactivity (PSR sort gate)” value is listed as “high polyreactivity”. For the sequence “QVQLVESGGGLVQAGGSLRLSCAASGSTLVYNGMVWYRQAPGKEREFVAAIRSNDGSTYYADSVKGRFTISRDNAKNTVYLQMNSLKPEDTAVYYCNNDVWDGYDWPEFDYWGQGTQVTVSS”, the “polyreactivity (PSR sort gate)” value is “low polyreactivity”. In the case of “QVQLVESGGGLVQAGGSLRLSCAASGSTLWFNAMGLYRPAPGKERELVAAINWSGGSTYYADSVKGRFTISRDNAKNTVYLQMNSLKPEDTAVYYCAAVYQYVHYVWYDYWGQGTQVTVSS”, the “polyreactivity (PSR sort gate)” value is given as “low polyreactivity”. Turning to “QVQLVESGGGLVQAGGSLRLSCAASGSTLWRYAMGWYRQAPGKEREFVAAISGSGGSTYYADSVKGRFTISRDNAKNTVYLLMNSLKPEDTAVYYCAASRKYRNPDRSMYYWGQGTQVTVSS”, the “polyreactivity (PSR sort gate)” value was “high polyreactivity”. “QVQLVESGGGLVQAGGSLRLSCAASGSTLWRYTMGWYRQAPGKVREFVADINRGSSTNYADSVKGRFTISRDNAKNSVYLQINSLKPEDTAVYYCAAAKVHYGYNSWYYYWRQGTQVTVSS”: the “polyreactivity (PSR sort gate)” value is “low polyreactivity”. As for “QVQLVESGGGLVQAGGSLRLSCAASGSTLWYYAMGWYRQAPGKERELVADITSSGNTNYADSVKGRFTISRDNAKNTVYLQMISLKPEDTAVYYCAADVTKYHDGHEYDYWGQGTQVTVSS”, the “polyreactivity (PSR sort gate)” value is recorded as “low polyreactivity”. As to “QVQLVESGGGLVQAGGSLRLSCAASGSTLYAYAMGWYRQAPGKERELVAAIRTGGSTYYADSVKGRFTISRDNAKNTVYLQMNSLKPEDTAVYYCAADHGYQYGYWGQGTQVTVSS”, the “polyreactivity (PSR sort gate)” value was “low polyreactivity”. The result for “QVQLVESGGGLVQAGGSLRLSCAASGSTLYKYAMGWYRQAPGKERELVAAISWSGSSTYYADSVKGRFTISRDNAKNTVYLQMNSLKPEDTAVYYCAAYPRPYIGYTDGYVWYEFDYWGQGTQVTVSS” reads “low polyreactivity”; that for “QVQLVESGGGLVQAGGSLRLSCAASGSTLYPYAMGWYRQAPGKERELVAVITLRGGSTYYADSVKGRFTISRDNAKNTVYLQMNSLKPEDTAVYYCATGNSKGRRTVRYGYWGQGTQVTVSS”, “high polyreactivity”; that for “QVQLVESGGGLVQAGGSLRLSCAASGSTLYPYDMGWYRQAPGTERELVAAIDSGGSTNYADSVKGRFTISRDNAKNTVYLQMNSLKPEDTAVYFFAADASGENDYWGQGTQVTVSS”, “low polyreactivity”.

In the case of “QVQLVESGGGLVQAGGSLRLSCAASGSTLYRNAMGWYRQQPGKERELVAGITSSGTTTYYADSVKGRFTISRDNAKNTVYLQMNSLKPEDTAVYYCAARSLGFYYYDMDYWGQGTQVTVSS”, the “polyreactivity (PSR sort gate)” value is given as “low polyreactivity”. As for “QVQLVESGGGLVQAGGSLRLSCAASGSTLYRYAMGWYRQAPGKEREFVAAISVSGARTYYADSVKGRFTISRDNAKNTVYLQMNSLKPEDTAVYYCAARGGYQYDYWGQGTQVTVSS”, the “polyreactivity (PSR sort gate)” value was “high polyreactivity”.

“QVQLVESGGGLVQAGGSLRLSCAASGSTLYRYAMGWYRQAPGKERELVAAISSAGSTHYADSVKGRFTISRDNAKNTVYLQMNSLKPEDTAVYYCAAKRYLKYGYWGQGTQVTVSS”: the “polyreactivity (PSR sort gate)” value is on record as “high polyreactivity”. Consider “QVQLVESGGGLVQAGGSLRLSCAASGSTLYRYTMGWYRQAPGKERELVAAISSGGNTYYADSVKGRFTISRDNAKNTVYLQMNSLKPEDTAVYYCAAEDSVYIPYYDAYDYWGQGTQVTVSS”, for which the “polyreactivity (PSR sort gate)” value is reported as “low polyreactivity”. Consider “QVQLVESGGGLVQAGGSLRLSCAASGSTLYSNAMGWYRQAPGKERELVATIDWSGGRTYYADSVKGRFTISRDNAKNTVYLQMNSLKPEDTAVYYCAARQSRDFRYRGFYYWGQGTQVTVSS”, for which the “polyreactivity (PSR sort gate)” value is “high polyreactivity”. For “QVQLVESGGGLVQAGGSLRLSCAASGSTLYTYAMGWYRQAPGKERELVATISWSGSSTYYADSVKGRFTISRDNAKNTVYLQMNSLKPEDTAVYDCAAPYHYWYRLDYWGQGTQVTVSA” the value was “high polyreactivity”. On to “QVQLVESGGGLVQAGGSLRLSCAASGSTLYVYTMGWYRQAPGKERELVATINTSGSRTYYADSVKGRFTISRDNAKNTVYLQMNSLKPEDTAVYYCAAEYVGKGTPDDYDYWGQGTQVTVSS”, for which the “polyreactivity (PSR sort gate)” value was “high polyreactivity”. For “QVQLVESGGGLVQAGGSLRLSCAASGSTLYYNAMGWYRQAPGKERELVAAISWSGGSTYYADSVKGRFTISRDNAKNTVYLQMNSLKPEDTAVYYCAADVNYYQHRLYYWGQGTQVTVSS”, the “polyreactivity (PSR sort gate)” value is “low polyreactivity”. For the sequence “QVQLVESGGGLVQAGGSLRLSCAASGSTLYYYAMGWYRQAPGKERELVAAITYSGGNTYYADSVKGRFTISRDNAKNTVYFQMNSLKPEDTAVYYCAADDWSSDYIRYEYWGQGTQVTVSS”, the “polyreactivity (PSR sort gate)” value is “low polyreactivity”. For “QVQLVESGGGLVQAGGSLRLSCAASGSTLYYYAMGWYRQAPGKERELVATITNGGSTNYADSVKGRFTISRYNAKNTVYLQMNSLKPEDTAVYYCNARRGYWGSNYWGEGTQVTVSS” the value was “high polyreactivity”. For the sequence “QVQLVESGGGLVQAGGSLRLSCAASGSTLYYYAMGWYRQAPGTERELGAAITWSGDSTYYADSVKGRFTISRDNAKNTVYLQMNSLKPEDTAVYYCAAEVESYDPYYTYDYWGQGTQVTVSS”, the “polyreactivity (PSR sort gate)” value is “high polyreactivity”. With “QVQLVESGGGLVQAGGSLRLSCAASGSTNGRNAIGWSRQAPRKERELVAAISSGGSTSYADSVKVRFTISRDNAKYTDYLQMNSLKPVDTAVYYCAAQSVGSQYDYWGQGTQVTVSS”, the “polyreactivity (PSR sort gate)” value is given as “low polyreactivity”.
